{"source": "paper PMC2719339", "key": {"[1]": {"molecular_target": "thiostrepton resistance RNA methyltransferase (Tsr) (Streptomyces azureus) (UniProt P18644)", "experiment": "SEC"}, "[2]": {"molecular_target": "thiostrepton resistance RNA methyltransferase (Tsr) (Streptomyces azureus) (UniProt P18644)", "experiment": "native gel or EMSA"}}, "data": [{"substance": "thiostrepton resistance RNA methyltransferase (Tsr) (from UniProt P18644 1-269) (enzyme)", "values": [{"measurement": "stoichiometry N", "setting": "[1]", "result": 2}, {"measurement": "stoichiometry N", "setting": "[2]", "result": 2}]}]}
